This is an account of results in publication PMC9795577, “Protein import into peroxisomes occurs through a nuclear pore-like phase” (Science (New York, N.Y.), 2022).

Sequences and labels used below:
B1: entire unstructured N-terminal region (including the YG domain) of Arabidopsis thaliana PEX13, amino acids 1–193 (domain or fragment)
chain: MASQPAGGSPPKPWEKEGNTSGPNPFRPPSNTSTAGSVEASGTANPGEVVPPPVNRPNTAANMNSLSRPVPARPWEQQNYGSTMGGGYGSNLGMTSGYGSGTYGSALGGYGSSYGGGMYGGSSMYRGGYGGGGLYGSSGMYGGGAMGGYGGTMGGYGMGMGTGMGMGMGMGMGGPYGSQDPNDPFNQPPSPPGC
notes: PEX13 of Arabidopsis thaliana, GenBank NP_187412.1, amino acids 1-193; single engineered cysteine at the C terminus for covalent derivatization; In the permeation assay it stood as a hydrogel droplet formed at 40 mg/ml (2 mM); also called N-terminal fragment; full-length fragment; source: E. coli BL21 Rosetta 2(DE3), purified under denaturing conditions (Ni-NTA), tag removed with TEV protease; …
B2: isolated YG domain of Arabidopsis thaliana PEX13, amino acids 76–193 (domain or fragment)
chain: EQQNYGSTMGGGYGSNLGMTSGYGSGTYGSALGGYGSSYGGGMYGGSSMYRGGYGGGGLYGSSGMYGGGAMGGYGGTMGGYGMGMGTGMGMGMGMGMGGPYGSQDPNDPFNQPPSPPGC
notes: PEX13 of Arabidopsis thaliana, GenBank NP_187412.1, amino acids 76-193 (YG domain); single engineered cysteine at the C terminus for covalent derivatization; also called YG domain alone; source: E. coli BL21 Rosetta 2(DE3), purified under denaturing conditions (Ni-NTA), tag removed with TEV protease; not shown: 14×His, N-terminal, cleaved
B3: full-length PEX5 fused to GFP (receptor)
chain: not shown
modifications: C-terminal GGSGGS linker and mEGFP left out

Data set [1] deals with the molecule itself. The data set can be described thus: hydrogel formation (gelation); purified fragment concentrated to 40 mg/ml (2 mM) in 2 M urea, 50 mM HEPES-NaOH pH 8.0, 1 mM TCEP, 1 mM EDTA, left in silicone tubing at room temperature, squeezed out and photographed.
Data set [2] addresses B1. The data set can be described thus: hydrogel permeation assay (confocal microscopy); droplets of the PEX13 1-193 hydrogel (40 mg/ml) in 25 mM HEPES-KOH pH 7.8, 130 mM KCl; GFP fusion proteins or GFP alone added at 500 nM; enrichment inside the gel over buffer after 30 min. To be noted: both partners purified.

As to B1, the binding result in data set [1] is “binds”. Still for that read-out and setting: the result for B2 reads “binds”. On to B3, for which, in data set [2], the “fold enrichment inside the gel over buffer” value was about 20 fold.
